The target of experiment [1] is Anti-TRAP (AT), mature deformylated form, trimer AT3 (assembly unit) (UniProt O31466+O31466). Nature of the experiment: Sedimentation velocity analytical ultracentrifugation (interference optics, 50,000 rpm). To be noted: pH 8; 25 °C; 100 mM NaCl plus 50 mM sodium phosphate; 50 mM sodium phosphate at pH 7, 7.25, 7.5 and 8 (Fig. 4 caption also lists pH 7.75).
Experiment [2] deals with Bacillus subtilis Anti-TRAP protein (AT), mature (deformylated) (Bacillus subtilis). Nature of the experiment: AUC; sedimentation velocity, interference optics, 25 °C, 50,000 rpm; 50 mM sodium phosphate, 100 mM NaCl, 0.5 mM tryptophan, 0.02 % NaN3, pH 7 to 8; 65-500 µM AT monomer; global fit in SEDPHAT to a three-state model, 4 AT3 to 2 AT6 to AT12; apparent rate constants, KD from their ratio.

In experiment [3] the target is N-formylmethionine Anti-TRAP (fAT), trimer fAT3 none (N-terminal formylation of Met1) (UniProt O31466). Kind of experiment: Small-angle X-ray scattering (SIBYLS beamline, ALS). To be noted: pH 8, 100 mM NaCl, 50 mM sodium-phosphate.
In experiment [4] the target is N-terminal formylmethionine Anti-TRAP (fAT) of Bacillus subtilis (Bacillus subtilis). Kind of experiment: NMR solution structure; fAT3, data at 55 °C; NOEs, torsion angles, RDCs, three-fold symmetry and SAXS restraints; homo-trimer.
The target is the same in experiment [5]. Kind of experiment: SAXS; fAT at 1, 2, 3.3, 5 and 10 mg/mL in 50 mM sodium phosphate pH 8, 100 mM NaCl, 200 µM ZnCl2, 1 mM TCEP; SIBYLS beamline; deconvolution into trimer and dodecamer.
The target is the same in experiment [6]. Nature of the experiment: NMR spectra (1H-15N HSQC); 3 mM fAT in 20 mM d11-Tris pH 7.5, 20 mM β-mercaptoethanol, 1 mM ZnCl2; also a pH series 6.5 to 8.0 at 25 °C; step looked at for non-binding: trimers to dodecamer.

For “Anti-TRAP (AT), mature deformylated form, trimer AT3 (assembly unit)”, the “equilibrium (dissociation) constant, step 2 (2 AT6 <-> AT12)” value in experiment [1] is 0.05 to 50 µM (upper end of range).
Usually stoichiometry N stands for the number of molecules, sites or subunits per partner or assembly. Regarding “Bacillus subtilis Anti-TRAP protein (AT), mature (deformylated) (natural protein)”, in experiment [2], the KD of the first step (two AT3 to AT6) lay in the range of 20 to 90 µM and the stoichiometry N came to 6.
On to “N-formylmethionine Anti-TRAP (fAT), trimer fAT3 none (N-terminal formylation of Met1)”, for which, in experiment [3], the “fraction of dodecamer in fAT by SAXS deconvolution” value is on record as under 3% at 10 mg/mL.
In the case of “N-terminal formylmethionine Anti-TRAP (fAT) of Bacillus subtilis (natural protein)”, the stoichiometry N in experiment [4] and in experiment [6] was 3 throughout. In experiment [5], this substance came in with a percent dodecamer of under 3%.

Values taken from PMC11255114.
